The source of these data is patent publication US20110104163A1 (US Dept. of Health and Human Services, published 2011).

A word on the EC50: it is the midpoint of the concentration-response curve. A higher EC50 goes with a need for much substance.

The target of assay [1] is T1, bovine serum albumin (bovine, UniProt P02769 25-607).
T1 construct: also called BSA
Nature of the assay: ELISA, plate coated with 1 µg/ml antigen, m36 detected with HRP anti-FLAG. Background: ELISA stands for enzyme-linked immunosorbent assay.

For assay [2], the target named is T2, soluble CD4 (UniProt P01730 26-396, limits assumed).
T2 construct: also called sCD4
The description is as above.

Assay [3] addresses T3, single-chain fusion protein gp120Bal-CD4 (HIV-1 isolate Bal, UniProt P01730 26-208).
T3 construct: Gift from T. Fouts; Coated on ELISA plates; also called gp120-CD4; Bal gp120-CD4; not shown: junction or linker between gp120 and CD4 not described (gift, Fouts et al. 2000)
Nature of the assay: ELISA, serially diluted m36 on coated antigen, anti-FLAG detection.

Assay [4] concerns the target T3, single-chain fusion protein gp120Bal-CD4. Nature of the assay: ELISA, soluble VH on coated gp120-CD4.

T1 sequence (P02769 25-607 limits assumed): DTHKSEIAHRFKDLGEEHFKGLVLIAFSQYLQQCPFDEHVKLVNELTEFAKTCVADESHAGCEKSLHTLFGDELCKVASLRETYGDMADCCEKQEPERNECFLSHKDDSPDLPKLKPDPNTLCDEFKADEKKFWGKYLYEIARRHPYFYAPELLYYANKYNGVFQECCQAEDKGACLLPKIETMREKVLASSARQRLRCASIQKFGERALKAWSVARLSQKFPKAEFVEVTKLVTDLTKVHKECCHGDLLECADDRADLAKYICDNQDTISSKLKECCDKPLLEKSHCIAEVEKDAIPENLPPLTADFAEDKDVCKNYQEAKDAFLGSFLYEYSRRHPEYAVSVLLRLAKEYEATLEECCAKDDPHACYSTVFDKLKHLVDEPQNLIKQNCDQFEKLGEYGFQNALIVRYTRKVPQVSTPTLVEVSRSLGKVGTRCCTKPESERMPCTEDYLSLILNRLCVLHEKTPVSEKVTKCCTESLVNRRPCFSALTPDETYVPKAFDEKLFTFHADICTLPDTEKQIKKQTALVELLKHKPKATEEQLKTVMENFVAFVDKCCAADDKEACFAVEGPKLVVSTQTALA

B1: m36 (VHH)
VHH: QVQLVQSGGGLVQPGGSLRLSCAASAFDFSDYEMSWVRQAPGKGLEWIGEINDSGNTIYNPSLKSRVTISRDNSKNTLYLQMNTLRAEDTAIYYCAIYGGNSGGEYWGQGTLVTVSS
notes: Human VH domain antibody, monomeric, made in E. coli with His and FLAG tags; also called b5; dAb m36
Consider B1, for which the binding result in assay [1] and in assay [2] was “no binding (tested: 10 µg/ml)” each time. Moreover, the EC50 in assay [3] was roughly 2.5 nM; in assay [4], 0.04 µg/mL.
